This is an account of results in publication PMC3798644, “Molecular Basis for Oligomeric-DNA Binding and Episome Maintenance by KSHV LANA” (PLoS Pathogens, 2013).

B2: LANA C-terminal DNA binding domain (residues 1011-1153), wild type (domain or fragment)
chain: HPRYQQPPVPYRQIDDCPAKARPQHIFYRRFLGKDGRRDPKCQWKFAVIFWGNDPYGLKKLSQAFQFGGVKAGPVSCLPHPGPDQSPITYCVYVYCQNKDTSKKVQMARLAWEASHPLAGNLQSSIVKFKKPLPLTQPGENQG
notes: source: E. coli, purified (Ni-NTA, tag cleaved with ULP1, second Ni-NTA, Superdex 75)

In data set [1] the target is B2. Kind of data set: pull-down; His-SMT3-BRD ET domain held on Ni-NTA resin; untagged LANADBD or EBNA1DBD added; 200 mM NaCl, 20 mM HEPES, 5 mM BME, pH 8.0; washed with 10 CV; eluted with 300 mM imidazole. The note with it: both partners purified.
Data set [2] concerns the molecule itself. Kind of data set: cross-linking; EGS, without DNA; 200 mM NaCl, 20 mM HEPES pH 7.4, 1 mM DTT, room temperature; samples boiled and run on gels.
Data set [3] concerns the molecule itself. Kind of data set: cross-linking; EGS, with a 1.2 molar excess of LBS1 DNA (unlabeled 21-mer); 200 mM NaCl, 20 mM HEPES pH 7.4, 1 mM DTT, room temperature; step: dimers and tetramers to higher oligomers.
The target in data set [4] is T1, His-SMT3-BRD2 ET domain, long form (BRD2 633-801) (UniProt P25440 633-801).
T1 construct: also called BRD2L
Kind of data set: pull-down; His-SMT3-BRD ET domain held on Ni-NTA resin; untagged LANADBD or EBNA1DBD added; 200 mM NaCl, 20 mM HEPES, 5 mM BME, pH 8.0; washed with 10 CV; eluted with 300 mM imidazole. The following applies: both partners purified.

In the next data set the target is T2, LANA DBD wild-type (KSHV (HHV-8), UniProt Q9DUN0 825-967).
T2 sequence: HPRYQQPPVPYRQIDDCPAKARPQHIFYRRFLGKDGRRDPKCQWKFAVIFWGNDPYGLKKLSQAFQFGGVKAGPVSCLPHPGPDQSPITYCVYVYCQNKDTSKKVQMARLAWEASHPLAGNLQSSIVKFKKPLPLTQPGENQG
Kind of data set: fluorescence polarization; cooperative, Hill h > 1; Kd only in figure; FP: 200 mM NaCl, 20 mM HEPES, 1 mM DTT, (protein stock pH 7.4), 1 ug/mL BSA, 0.1 ug/mL poly(dA:dT), 0.001% Tween 20, 1 nM probe, room temperature 30 min; EMSA:
The note with it: protein: recombinant; tags: His-SMT3 removed by ULP1; chain copies: 2; label: 5' 6-carboxyfluorescein; blunt. A general note: In fluorescence polarisation assays a small probe gives low polarisation when free and higher when bound to something large.

B1: His-SMT3-BRD2 ET domain, short form (BRD2 633-714) (domain or fragment, UniProt P25440 633-714, looked up)
chain: SEEEEESRPMSYDEKRQLSLDINKLPGEKLGRVVHIIQAREPSLRDSNPEEIEIDFETLKPSTLRELERYVLSCLRKKPRKP
notes: also called BRD2S
Consider B1, for which the binding result in data set [1] was “binds”.
Turning to B2, the stoichiometry N (as a rule, the number of molecules, sites or subunits per partner or assembly) in data set [2] is 4; in data set [3] it was about 10. For the same molecule, in data set [4], the binding result is given as “binds”.

B3: LBS1 21-mer FP probe (dsDNA)
DNA 1: AGCGGCCCCATGCCCGGGCGG
DNA 2: CCGCCCGGGCATGGGGCCGCT
With B3, the binding result in the data set with LANA DBD wild-type is “binds”.
